This is an account of results in PMC3438196.

Read-outs that look alike come from different tables or passages of the source.

Holding throughout (assay): MAPPIT
For assay [1], the target named is Gag MAPPIT prey (pMG2-Gag). Particulars: stimulation with Epo; parent: est. 38; read off a plot.
Assay [2] deals with Gagpol MAPPIT prey (pMG2-Gagpol).
Assay [3] shares this target. The source holds these as a separate data set.

“Apobec3G MAPPIT bait (pCEL-Apobec3G) (from UniProt Q9HC16) YFW125-127DY”: the response (fold induction) in assay [1] amounted to 2.2.

With “Apobec3G-GFP MAPPIT bait (pCEL-Apobec3G-GFP) (from UniProt Q9HC16) D128G”, the percent of parent in assay [2] is 11 % of WT.

With “Apobec3G-GFP MAPPIT bait (pCEL-Apobec3G-GFP) (from UniProt Q9HC16) E191V”, the percent of parent in assay [2] was 8 % of WT.

In the case of “Apobec3G-GFP MAPPIT bait (pCEL-Apobec3G-GFP) (from UniProt Q9HC16) H81L”, in assay [3], the percent of parent was 33 % of WT.

Consider “Apobec3G-GFP MAPPIT bait (pCEL-Apobec3G-GFP) (from UniProt Q9HC16) K79M”, for which, in assay [3], the percent of parent was 32 % of WT.

Turning to “Apobec3G-GFP MAPPIT bait (pCEL-Apobec3G-GFP) (from UniProt Q9HC16) K270E”, the percent of parent in assay [3] is 67 % of WT.

On to “Apobec3G-GFP MAPPIT bait (pCEL-Apobec3G-GFP) (from UniProt Q9HC16) N20D”, for which the percent of parent in assay [2] is 22 % of WT.

For the substance “Apobec3G-GFP MAPPIT bait (pCEL-Apobec3G-GFP) (from UniProt Q9HC16) Q237K”, the percent of parent in assay [3] is 46 % of WT.

For the substance “Apobec3G-GFP MAPPIT bait (pCEL-Apobec3G-GFP) (from UniProt Q9HC16) R30L”, the percent of parent in assay [2] and in assay [3] was 5 % of WT each time.

For “Apobec3G-GFP MAPPIT bait (pCEL-Apobec3G-GFP) (from UniProt Q9HC16) R78W”, the percent of parent in assay [3] is 6 % of WT.

For “Apobec3G-GFP MAPPIT bait (pCEL-Apobec3G-GFP) (from UniProt Q9HC16) R122C”, the percent of parent in assay [2] is 5 % of WT.

On to “Apobec3G-GFP MAPPIT bait (pCEL-Apobec3G-GFP) (from UniProt Q9HC16) R136S”, for which the percent of parent in assay [2] was 24 % of WT.

In the case of “Apobec3G-GFP MAPPIT bait (pCEL-Apobec3G-GFP) (from UniProt Q9HC16) R238C”, the percent of parent in assay [3] was 56 % of WT.

“Apobec3G-GFP MAPPIT bait (pCEL-Apobec3G-GFP) (from UniProt Q9HC16) W94R”: the percent of parent in assay [2] was 13 % of WT.

As to “Apobec3G-GFP MAPPIT bait (pCEL-Apobec3G-GFP) (from UniProt Q9HC16) W269G”, the percent of parent in assay [3] was 33 % of WT.

Take “Apobec3G-GFP MAPPIT bait (pCEL-Apobec3G-GFP) (from UniProt Q9HC16) Y222N”: the percent of parent in assay [3] is 6 % of WT.
